# In the supplement of paper PMC9732359:
# ± gives the uncertainty stated by the source.
# Assay: protein stability index of a GFP-peptide fusion (yeast GPS) (PSI 1-4); higher = more stable; sorted into four equal gates, so the index is relative within each strain
# Details: doa10∆
# Outline: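 Plasmids isolated from each sorting gate were PCR-amplified and Illumina-sequenced, and barcodes assigned the reads to strains. The gates, four of equal size, were set by GFP/Cherry fluorescence ratio on mid-log cultures in leucine-free medium. These cultures were yeast carrying a pooled library of tiled 17-residue yeast protein peptides fused downstream of GFP on a plasmid that also expresses Cherry. The protein stability index is the sum of every gate's read frequency times its gate number.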
row,Sequence,protein stability index
1,TTIGDTTDKNTTDDKSM [BRN1],3.24 ± 0.082
2,TTIKAIFDGNYGESDIH [YMR129W/POM152],3.23 ± 0.09
3,TTKILGDKILGNLYSKV [YML103C/NUP188],2.69 ± 0.079
4,TTKMWPTNCPLRQFKTC [BRR2],2.41 ± 0.093
5,TTMFENTGWSCSRIIKI [RGR1],3.61 ± 0.2
6,TTNLDIDLLTFQYGSRL [RPP1],3.29 ± 0.087
7,TTTATPHANPITHAHSL [PGD1],2.84 ± 0.043
8,TTTMLQLFSTFDRLNGN [SSN2],3.08 ± 0.076
9,TTVITVFLEFSLNFIPI [YML103C/NUP188],1.42 ± 0.038
10,TTVYRYSAAKKIPDTYT [YAR002W/NUP60],1.34 ± 0.087
11,TVENPLRNWEELNIIPR [PRP28],1.49 ± 0.041
12,TVFFLIRVAETRGGASA [YJL039C/NUP192],2.18 ± 0.071
13,TVFLPMVGLVDPDKLKP [RPT5],2.77 ± 0.061
14,TVHSKSRTRAHAQSKRE [RPL19A],3.19 ± 0.074
15,TVIPEDEEIIQLHFSLL [RPO21],2.64 ± 0.06
16,TVKENESDSKLQCHISG [UBP6],3.28 ± 0.098
17,TVQLTFLIDVLKIYAQI [YCG1],1.58 ± 0.047
18,TVRLVNLFSSTGFKGLL [SRB2],2.31 ± 0.073
19,TVTNSKFRSSILRKSFD [RPN2],2.88 ± 0.1
20,TYEAIEITDAYCFAKND [YMR129W/POM152],2.93 ± 0.061
21,TYPAGFMDVITLDATNE [RPS4A],2.71 ± 0.085
22,VACLFITISIHGKPTKG [SSN8],1.19 ± 0.061
23,VAEKMNGCSGADVKGVC [RPT6],3.41 ± 0.24
24,VAESFTDEADSSMTEAS [SNF2],3.46 ± 0.12
25,VAGGKKALAIFVPVPSL [RPS7A],2.49 ± 0.056
26,VANVKDLETLTMHTKTY [RPL32],3.08 ± 0.13

row,Sequence,protein stability index
1,VDDAIELALKTLSKTTD [PRE9],2.43 ± 0.066
2,VDEEDENGTHNDEVNED [YCG1],3.46 ± 0.09
3,VDENGDPIWQHQSLGPD [RET1],3.25 ± 0.056
4,VDIVNQWFLQYQNQFVE [YML103C/NUP188],1.79 ± 0.055
5,VDLIEKFLRYNPLEKRD [RPB10],2.91 ± 0.14
6,VDNSPTTESNSRLKALN [YLR335W/NUP2],3.18 ± 0.07
7,VDNVWADVYAKALEGKD [RPP1B],3.14 ± 0.1
8,VDPEQEAHNKALNQFKR [RPT4],3.37 ± 0.19
9,VDPIQSVKGKVVIDAFR [RPN11],2.59 ± 0.072
10,VDPKRLAMVIIKEFVDD [DSN1],3.33 ± 0.1
11,VDSISLHKIFYKVLKNN [YCG1],1.99 ± 0.047
12,VDSRATAGNWVASQTVK [PRE2],3.17 ± 0.12
13,VDVNNKFIALCEQQPSQ [SIN4],2.82 ± 0.051
14,VEAGMIALRNGQSSVKH [RPT5],2.87 ± 0.14
15,VEASRRRRSSTNKSKRP [MED1],3.19 ± 0.066
16,VEFINKMENFEFLPLSL [SRB8],3.08 ± 0.16
17,VEIAFLFRAIYLYCLDN [YCG1],1.54 ± 0.065
18,VEIIDQKKVLIDGPKAG [RPL14A],2.8 ± 0.18
19,VELHGKRKLDIGKDTFV [PRP8],3.26 ± 0.29
20,VENDTFIERNFTPQEIE [FAS2],2.87 ± 0.083
21,VENSVLIEKVDDTAANN [YIL149C/MLP2],2.83 ± 0.15
22,VENWIIDDKGVLMERKD [ITC1],1.69 ± 0.099
23,VENYETSSAFFYQQVHK [SIR4],2.75 ± 0.04
24,VERIQKMIEKIEKMSTI [YIL149C/MLP2],3.13 ± 0.29
25,VEVCLADLQGSEDHSFR [RPS1A],3.44 ± 0.18
26,VFGISKTSSGSYNYVEN [ITC1],3.33 ± 0.083

row,Sequence,protein stability index
1,VFHDPDHSMILPSGVLS [SMC3],1.71 ± 0.15
2,VFSALKNLISRINTLPQ [ECM29],3.06 ± 0.12
3,VFVKKHHELIKVKHDSQ [SSN2],1.32 ± 0.07
4,VFYAELNEFFTRELAEE [RPS3],3.16 ± 0.13
5,VGACTDEEMTISQKLHD [RRP43],3.14 ± 0.1
6,VGFGESNFTSIIGPNGS [SMC1],3.37 ± 0.09
7,VGGCKDQIEKLREVVEL [RPT1],3.37 ± 0.071
8,VGLKNYDPQRDKRFSGS [RPL1A],3.23 ± 0.082
9,VGLVSPSFMLKHHQLFY [RPN1],1.64 ± 0.079
10,VGPSEQNFAEEDDSSNS [REC8],2.56 ± 0.15
11,VGRQDPKKHLSETADET [RPN11],3.17 ± 0.078
12,VGVDQLSIELEGGKNQA [YJL039C/NUP192],3.08 ± 0.27
13,VGVIIFILTIATAFLGY [COB],2.31 ± 0.07
14,VHDKVLEDMVFPTEIVG [RPS7B],2.63 ± 0.13
15,VHDLNKYKSNTNNMEKI [SMC2],3.46 ± 0.17
16,VHELSKRVHTLLTLIVR [ISW2],1.34 ± 0.091
17,VHNTNSFIISSLDTLEL [NUT1],2 ± 0.076
18,VHPDYLYGAITEDRYNE [FAS2],1.08 ± 0.092
19,VHPIPDVAFADGGKTLR [YMR129W/POM152],2.5 ± 0.064
20,VIAKLNHNQFECKGCDN [RPB2],2.93 ± 0.054
21,VIEQCYLKFIPLKRAIW [SRB8],1.5 ± 0.053
22,VIGGNSLFHIVVDTEET [SMC3],2.73 ± 0.099
23,VILFDSDWNPQADLQAM [ISW2],3.12 ± 0.088
24,VILKQILQILDQDELVQ [SWP82],2.54 ± 0.051
25,VINKLDRLILDLKLPPM [SNU114],2.05 ± 0.12
26,VINPQQLLKGLSLSFSK [DSN1],3.2 ± 0.11

row,Sequence,protein stability index
1,VIPIRRGYWGTNLGQPH [RPS2],2.04 ± 0.074
2,VIQIVTGIFMAMHYSSN [COB],1.32 ± 0.078
3,VIRMVVLTAAGVERLIF [PRE3],2.33 ± 0.17
4,VITIKSRIRVKIEGCIS [RPB7],2.04 ± 0.082
5,VIVLSNISHLLEIASSI [SWI1],2.35 ± 0.059
6,VIVPLSTLSNWSSEFAK [SNF2],2.65 ± 0.049
7,VKEQTEAAKKSEKKAKK [RPL34A],3.36 ± 0.13
8,VKGTNISEKDLVPKRCL [RPO31],2.63 ± 0.12
9,VKKLEIQQHARYDCSFC [RPL43A],2.73 ± 0.11
10,VKKVIEINPFLLGTMAG [PRE2],1.37 ± 0.14
11,VKPISIEAPQFYRYWSA [SWI3],2.23 ± 0.036
12,VKQIAPAELEGLLDLER [FAS2],3.11 ± 0.3
13,VKQVLLSVEIGVLTDIS [NUT1],1.16 ± 0.063
14,VKWQYDPNNPVDFDGLD [SNF12],2.74 ± 0.062
15,VLCNSNISKSRAKPVTN [RRP6],2.3 ± 0.083
16,VLDVDPKYAKQKDKSDT [ISW2],2.91 ± 0.11
17,VLEERERGQKVKNVKNS [ARP9],2.71 ± 0.19
18,VLEKYEVIGYIAAGTYG [SSN3],1.34 ± 0.088
19,VLEQLSGQTPVQSKARY [RPL11A],3.2 ± 0.24
20,VLKCLKSLESQRYVKSV [RPC34],1.72 ± 0.059
21,VLKKKNIQKKQPAKEKG [RRP6],3 ± 0.085
22,VLKYMLLSKIMLNLIDD [RPN6],2.04 ± 0.06
23,VLQYSDWESDLHIHLNQ [YDL116W/NUP84],2.48 ± 0.073
24,VLVDEIKSQYYSRISKL [YIL149C/MLP2],2.41 ± 0.054
